The text below walks through data of patent US20230094463A1, “ANTIBODIES THAT DISRUPT THE INTERACTION OF GAL3 AND INSULIN RECEPTOR OR INTEGRINS AND METHODS OF USE THEREOF” (TrueBinding, Inc., priority 2019, published 2023).

One assay has as its system Jurkat T cell adhesion. The experiment in a line: Jurkat T cell adhesion assay on Gal-3/antibody coated plates. In kind it is cell-based. Conditions: recombinant Gal-3 pre-incubated with antibody, 10^5 cells per well. The protocol:
To evaluate whether anti-GAL3 antibodies that block GAL3 interaction with integrin negatively influence lymphocyte homing (an important aspect in development of inflammatory diseases), a cell-based assay utilizing lymphocyte Jurkat T cell line was employed. Briefly, recombinant Gal-3 ([…] in PBS) and antibody ([…] in PBS) were incubated for 30 minutes on ice prior to the coating mixture transfer to the 96-well plate and additional overnight incubation. The coating mixture was then removed and the plate was blocked with 0.5% BSA for 45 minutes. Jurkat T cells (10^5 cells per well) were plated in serum free RPMI. Following thirty-minute incubation, the cells were gently washed once with serum free medium and fixed with 4% PFA for 10 minutes. The adhered cells were further stained with SYTOX™ Orange Nucleic Acid staining (ThermoFisher, S11368) and analyzed by Cytation 1 Cell Imaging Multi-Mode Reader (Biotek).

The test system of assay [1] is Gal3 peptides (SEQ ID NOs: 3-26). Put plainly: Gal3 peptide library binding ELISA (epitope mapping). Set-up: species or system human. Conditions: Peptide 8 (SEQ ID NO: 10). (ELISA stands for enzyme-linked immunosorbent assay.)
Assay [2] deals with T1, Gal3 peptides (SEQ ID NOs: 3-26) (Homo sapiens, UniProt P17931).
T1 construct: a library of 24 amino acid peptides representing portions of Gal3; purchased LifeTein custom order
The assay is described as above.

For the next assay, the target named is T2, human Gal3 (Homo sapiens, UniProt P17931).
T2 construct: His; purchased AcroBio GA3-H5129
Put plainly: Antibody binning assays (competition for binding to Gal3). Conditions: binning per Examples 3 and 18. The protocol: To determine whether Gal3-binding antibodies with Gal3-INSR blocking activity bind to the same or overlapping regions of the Gal3 molecule, antibody binning assays were performed to assess the ability of antibodies to simultaneously bind Gal3. Amine-reactive probes were loaded onto a Gator biosensor (Probe Life, Palo Alto, Calif.), equilibrated in dH20 for 60 seconds, dipped into 100 μl EDC 0.2M/NHS 0.05M activation buffer for 30 seconds, then dipped into a solution of […] human Gal3-His in 10 mM NaOAc buffer, pH 5 until binding was saturated, and quenched in 1 M ethanolamine pH 8.5 for 300 seconds. Following Gal3-His loading, tips were dipped in 20 μg/mL saturating antibody, then successively dipped into 5 μg/mL competing antibody.
The epitope binning assay was done in a sandwich format on the high-throughput SPR-based Carterra LSA unit (CarterraBio, Salt Lake City, Utah). First, the purified antibodies were diluted to 10 μg/ml concentration in 10 mM NaOAc (pH 5.0) and then were covalently coupled via amine group to HC200M chip activated by EDC and S-NHS to immobilize antibodies to different positions of a 384-spot array. One hundred thirty-eight binning cycles were run on the array of immobilized antibodies. In each cycle, first, human Gal3 (AcroBio GA3-H5129) was injected over the entire array to bind to different antibodies (primary antibody), followed by one antibody (secondary antibody) selected among the panel of 150 anti-GAL3 antibodies tested. At the end of each cycle, the array was regenerated by 10 mM Glycine (pH 2.0) to remove bound antigen and secondary antibody from the array. The data analysis was done using the Epitope software by CarterraBio.

T2 sequence (P17931 whole entry): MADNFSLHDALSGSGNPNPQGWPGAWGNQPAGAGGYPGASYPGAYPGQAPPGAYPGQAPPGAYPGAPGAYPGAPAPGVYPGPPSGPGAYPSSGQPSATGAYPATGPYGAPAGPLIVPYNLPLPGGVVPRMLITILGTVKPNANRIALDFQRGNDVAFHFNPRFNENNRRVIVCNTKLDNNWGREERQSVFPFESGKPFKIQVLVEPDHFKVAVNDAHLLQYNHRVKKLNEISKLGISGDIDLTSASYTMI

B1: 23H9.2E4: anti-Gal3 monoclonal antibody (antibody, V domains shown)
VH: QIQLVQSGPELKKPGETVKISCKASGYTFTTYAMSWVKQAPGKGLKWMGWINTYSGVPTYADDLKGRFAFSLETSASTAYLQINNLKNEDTATYFCARGPYAMDYWGQGTSVTVSS
VL: DIQMTQTTSSLSASLGDRVTISCSASQGINNYLNWYQQKPDGTVKLLIYYASSLHSGVPSRFSGSGSGTDYSLTISNLEPEDIATYYCQQYSQVPYTFGSGTKLEIK
With B1, the “inhibition of Jurkat T cell adhesion” value in the assay on Jurkat T cell adhesion is given as “did not inhibit”. Besides, the “binding to Gal3 Peptide 8” value in assay [1] is recorded as “bind”. For the same molecule, the “binding to Gal3 Peptide 1” value in assay [2] (Peptide 1 (SEQ ID NO: 3), amino acids 1-20 of Gal3) is “bind and bound”. For the same molecule, in assay [2] (Peptide 6 (SEQ ID NO: 8), amino acids 51-70 of Gal3), the “binding to Gal3 Peptide 6” value was “bind and bound”. For the same molecule, in assay [2] (Peptide 7 (SEQ ID NO: 9), amino acids 61-80 of Gal3), the “binding to Gal3 Peptide 7” value was “bind and bound”. Further, in the assay with human Gal3, the “epitope bin (competitive binding to Gal3)” value was “bin 3”.
